{
  "source": "a protein production outcome set (Wang et al. 2014)",
  "assay": "label from the status in PepcDB records",
  "data": [
    {"sequence": "MKPVKPPRINGRVPVLSAQEAVNYIPDEATLCVLGAGGGILEATTLITALADKYKQTQTPRNLSIISPTGLGDRADRGISPLAQEGLVKWALCGHWGQSPRISDLAEQNKIIAYNYPQGVLTQTLRAAAAHQPGIISDIGIGTFVDPRQQGGKLNEVTKEDLIKLVEFDNKEYLYYKAIAPDIAFIRATTCDSEGYATFEDEVMYLDALVIAQAVHNNGGIVMMQVQKMVKKATLHPKSVRIPGYLVDIVVVDPDQSQLYGGAPVNRFISGDFTLDDSTKLSLPLNQRKLVARRALFEMRKGAVGNVGVGIADGIGLVAREEGCADDFILTVETGPIGGITSQGIAFGANVNTRAILDMTSQFDFYHGGGLDVCYLSFAEVDQHGNVGVHKFNGKIMGTGGFIDISATSKKIIFCGTLTAGSLKTEIADGKLNIVQEGRVKKFIRELPEITFSGKIALERGLDVRYITERAVFTLKEDGLHLIEIAPGVDLQKDILDKMDFTPVISPELKLMDERLFIDAAMGFVLPEAAH", "values": [
      {"measurement": "protein production", "result": "not failed"}
    ]},
    {"sequence": "MKPVKVGICGLGTVGGGTFNVLERNAEEIARRAGRGIEVAQIAARRPNPKCDTGATPITADIFDVACNPEIDVVVELIGGYTLAHELVLKAIENGKHVVTANKALIAVHGNEIFAKAREKGVIVAFEAAVAGGIPVIKAIREGLSANRINWLAGIINGTGNFILSEMREKGRTFPDVLAEAQALGYAEADPTFDVEGIDAAHKLTILASIAFGIPLQFDKAYTEGISKLTSADVNYADALGYRIKHLGVARRTESGFELRVHPTLIPSDRLIANVNGVMNAVMVNGDAVGSTLYYGAGAGMEPTASSVVADLVDVVRAMTSDPENRVPHLAFQPDALSDHPILPIEACESAYYLRIQAKDHPGVLAQVATILSERGINIESIMQKEAEEQDGLVPMILVTHRVIEQRINDAIAALEALEGVSGPVVRIRVEQL", "values": [
      {"measurement": "protein production", "result": "not failed"}
    ]},
    {"sequence": "MKQESPRLENTTPVEEKMTRSLLDHLTRLKPTRLVIFTSVFLSCLLLSLGFVFLQPATYQSYATLLTVAKTAIDQASREADIQHVAIQKQVLLGSELLTETADRLRKGDDAEAGINLTHAAIRDMLDVRPVDDTNLVEMVAEGNEPGLLPRLINTWIDVYLDARSAEIARSKGSTVEMMQEELVALTEKIQQKRLELEQFRQHNEIVSTERQDNEALARLKGLTDSLNKASEEEVKAKARLDTIRKSIERGQIVVPNEDTRTLSALERRAQELREQLEELDRQYTREYMALSPDLKVIPDKLRALEDEIQHIRRKGQTVVVSDAEQEYAAARQATRSIQEQLDQHRKKAAEFTARFTEHDALKSDLEELEQLYRDTQARLAQIEAQHTGKYPYVDVIERAFLPHHPIGPDYLWNAMIATLASLLLGLTAIWILEFLMHKEQEKLAIHLSGIHLHNQDNLPHSAFDVLPSTSVNLPRQPAQALEHTSMNGLTPQQIATLFQTANIREKQLLLLLLSGLTPDEITHLQQDDIDLEHNSLTVRSVPARTIPLHPVLAALYGKYGHCLTDPAGNRLNQEELEALLICLQIDADLSADNQISAEILRQTYILYLVRQGIRLGDLESVTGYISPTELSGYGTYAPAGTRYPVESVNLFYPIDYKQDV", "values": [
      {"measurement": "protein production", "result": "failed"}
    ]},
    {"sequence": "MKQIRLLAQYYVDLMMKLGLVRFSMLLALALVVLAIVVQMAVTMVLHGQVESIDVIRSIFFGLLITPWAVYFLSVVVEQLEESRQRLSRLVQKLEEMRERDLSLNVQLKDNIAQL", "values": [
      {"measurement": "protein production", "result": "not failed"}
    ]},
    {"sequence": "MKQKFSSLFVLLVLLLTGLQVSAQSTPKPFDIEQPSLRVFLPAPELATGRAVVACPGGGYSGLAVNHEGYDWAPYFNKQGIALIVLKYRMPKGDRTLPISDAEAAMKMVRDSADVWNLNPNDIGIMGSSAGGHLASTIATHAPEALRPNFQILFYPVITMDKSFTHMGSHDNLLGKDASADLEKEFSNEKQVTKETPRAFIVYSDDDKVVPPANGVNYYLALNKKGVPSVLHIYPTGGHGWGIREDFLYKSEMQNELTSWLRSFKAPRKDAVRVACIGNSITFGAGIRNRSRDSYPSVLARMLGDSYWVKNFGVSARTMLNKGDHPYMNEPAYKNALAFNPNIVVIKLGTNDSKSFNWKYKADFMKDAQTMIDAFKGLPSQPKIYLCYPSKAYLTGDGINDDIISKEIIPMIKKLAKKNDLSVIDLHTAMDGMPELFPDRIHPNEKGAQVMAKAVYQSISTLK", "values": [
      {"measurement": "protein production", "result": "failed"}
    ]},
    {"sequence": "MKQKLVVMIAAVLILALTVSIASAEDQNDQTSLRSEQNDAFVAGDNLIDSSSVIKYGDPIGSYKNVTAYSNKGNGKYQCVEYVKRFYKEAMNVEPDWDGTGNAITYYTNAEAKGLVSYSNNGSVAPKPDDIIIFSPTDNGYGHVAIITEVGDKYIKIIEQNWNQENAFASLSLEKNGSKYYISPRGASKRPTEGWCRTPILNIISPTKKSFSLVGNYNNPNLLTVDAEVKSENVPITGLNKDNFTIEIGSKKVNDVTVSDVGEGKYKLSFNPPKQDSNGNYDLNVYVKYKKVTLSDSELNAVRYGEDNANANANVMLVIDRSGSMSGSPISSAKNSANLFIDYMEAEDMAGVVSFSSSARYDYHLATLTPEVKNSIKQKINSIYASGVTAIGSGMRYGLNDLLNYGDPNNPWAIVLLSDGYQNSGENPNNVIPSIKASNIQVYTVGLGPAVDQKLLGNIADQTGGKYYYSPTDSQLQEIYNDIVGKIIGWKTVFKRNVKMFIHERVPIAVPIDSAIDKVSFGIGWPGSNVDLVLYKPDGTLVDPSFADSDPTIEYLSGPTYKIYKVTDPESGMWNMELNATDMPAGGEDVYVTVLAESTLSMSLSTNKGQYNQGEVVKIIADLSDAGTQITGADVKVNVTLPDSSVEYLTLYDDGGHGDNGSQDGVYANYLVDTSLMGDYKVDVTSTGSLSDGSQFKRIEDTSFEIIQGISSISSIANLQSTNDITWINWTWTNPTGPNFSHTEIYLDGVFQANTSAEFFNATGLEPETEYTLSTHTVDISGNVNETWVNSTATTSAELVSDVKKPVIDSVNLFPANTTAGATINLSINATDDTAVTEVIAGDIQLIKTDDIWQGSITAPSSIGSYSLLIKAKDAAGNVAEASVPYRVVQLSGGANIAVSPRSSSIVAGNSVTLNIKVKNTQNIDDIFKVNITVSELPAANQANIDWFSWTEQSVKLRAGEEILLPLEVEVPDGTALGLKLFRANVNSETSVVTGFDTGYLKVV", "values": [
      {"measurement": "protein production", "result": "failed"}
    ]},
    {"sequence": "MKQKQFYFIYVFLLSMTFLGACSKDSPNELIPNTIVKIEIDKLPGKRIYFIGEELDVSDMTLKVFYSNETSEIVPVKKDEVTGFNSTVPENDQILEVHKGSFTVTFKIQVLINDIQAISIKTLPSKTVYTLGEPLSLSNMVLEINYADGTIKENSAPSADWVQGFNSSVPAQLQIVTLELDGKQVSFDVQILPVKVDGDKVVSVIDSDFTSITFPDGIRTIGSKAFENKNIKASELLCPASLSTIEQAAFAYCRNLKIVDLSHTSIKELPEEAFLFSGIKKIALPASLEIVGKEAFYGCTDLNVIDISHTSVKELQNGAFGKSGISSISLPSTFKIVGASAFIETKNLKELTLPEGSEVIDLEAFSGSSIQKVTLPNTIYHIDRSFYSCPELTTIETYGTRTTPSPVDRTAAIVSECFNHSPKLTVLKIPASIVKIGISALNKCQVKTLILPASVKALDFNAFGNAVSLDEISLMSPTMVTADYYPVPPGIQKIRVPQNLVETYKQNKAWKPFAEKIVAL", "values": [
      {"measurement": "protein production", "result": "failed"}
    ]},
    {"sequence": "MKQKRLTFLLLLISNLFCASAQKWYKPEIDLKVEELLSQMTVEEKLGYIGGIDWMYTKSIDRLGIHRMRMSDGPQGIGTKGKSTAYPATVTLAATWNENLAYQYGKALGRDCRARNINVILGPAVNIYRAPMCGRNFEYMGEDPYLTSRICVGYIKGVQDQGVMATVKHFVANNSDYDRNNISNDIDERTLNEIYFPAYKAAIQEAEVGAIMTSYNLMNGIYTTENPWLLKEVLRNQWGFKGLVMSDWGSTHYCVPAARSGLDLEMAGGEKMNPKDMAYYLKTGDVTMDMVDEKVRHILRILIAFGFKDGTEADKSIALDDPQSVETA", "values": [
      {"measurement": "protein production", "result": "failed"}
    ]},
    {"sequence": "MKQLLEFIPLILFFAVYKLVGVQAAAITLVLATILQLILVRILFKKLETSQWIVGLSVIIFGILTAYFDDLAFLKWKVTIINGLFAAVLLISQYVFHKPVVKMLLAKELSLPTQVWNRLNLGWAIFFIICMLINIIISQLFSDDTWATFKTFGFTGLSLVAVIITGIYLYPYIKKLENNNEQK", "values": [
      {"measurement": "protein production", "result": "failed"}
    ]},
    {"sequence": "MKQLTILGSTGSIGNSTLSVVRANPELFKVTALVAGRNVREMAQQCLEFSPRYAAMSDEHSAKSLRLLLAEQGSDTEVYSGETAACELAALDDVDQVMAAIVGIAGLPSTLAAIRAGKQVLLANKESLITCGKLFMDEVKRSRAQLLPIDSEHNAIFQSLPERIQRQLGYSSLNENGVSRIILTGSGGPFRETPLSQFSDVTPDQACAHPNWSMGRKISVDSATMMNKGLEYIEARWLFNASAEQIEVVLHPQSVIHSMVRYHDGSILAQMGTPDMRTPIAHAMAYPMRVSSGVAPLDFCKVGALTFTTPDYQRYPCLKLAIDACNAGQAATTALNAANEISVMAFLDSKIRFTDIEVINRTVVEGLLLSEPTSVEEVLVIDRKARDVAAQVIAKLNN", "values": [
      {"measurement": "protein production", "result": "not failed"}
    ]},
    {"sequence": "MKQMSITLIFIMAFTIIIHAVETSSYSIRLAGVRLKKIAVALSVVGMVLLISRTSNLLQAFLIGGIVDEAKLDSSIDLEHIIRLVLLSASIGTLLAIILYPTLTKLFGYVIQNFETDGSFIRMMKTNNIQKLKYTKKYVRFPKLEMIHRLRIGGIPKRIMLINMFATAIYTAGVLSALYASFLNPDYATNASTASGLVNGFATILLTVLLDPRIALLTERALQSENGAESMSKMYGWLMISRLFGTLLAQLLFVPGAYWILWIIELIH", "values": [
      {"measurement": "protein production", "result": "failed"}
    ]},
    {"sequence": "MKQNQQNKKSFEVQLTQLFLFTSLPLFFLLIGVMIYANISLYLILLTMLISSLVIVYSHSKLHQKSAYQFRSLSNLLDAMVQGDYSLRARISDGDEALNELVDSINSLSLRLNKQRIETTESQLLLTTVINHIDVAILALNENNELVLTNPAAKKLLQIPAEQQEFDLIESFSQFSQIAAMNSGNSQVMSLYFANQQGKFNVHLEEYRENGKPQKLVFITDVSTMLRSEERNAWQALVRVISHEINNSLSPIASISQSLRRLLARQEKLENHKEYLVEGLSIISQRSNSLTEFVNSYKQIASLPEPKKQPSSVLELVNKTVALYPDECIEVQNIDDITLVLDAVQFEQVLINLVKNAVEAVKSAGEAGKVAISGQVNGKVFSLSLADDGTGVSNLENLFVPFYSTKSKGSGIGLVLCRQIIEAHGGKITLTNRLGVSGCIATIELPL", "values": [
      {"measurement": "protein production", "result": "failed"}
    ]},
    {"sequence": "MKQPTLAVIMTCHNRRNTTLACLQALYQQKNHFDVYLTDDGSTDGTAEFIKAEYPDVKIFQGDGNLFWVGGMHLAFGEAIKNQYDYYLWLNDDTFLEADALEKLLQVHENLAVEGYGQSIVVGSTQDPITKQATYGGAVKSKKWYSNKFEFLEPTSDVQKCDAMYGNCVLIPHSVTLKVGNIDTAFIHSLGDLDYALRARNLGLEHHHHHH", "values": [
      {"measurement": "protein production", "result": "failed"}
    ]},
    {"sequence": "MKQSKIIVAGIGPGSEQDITPAVLAAVREADVVVGYKYYFRFIRDFVRPDAECIDTGMKRERARAEQAFEYAEQGKTVCVISSGDAGIYGMTPLIYEMKRERQSNVEIIALPGI", "values": [
      {"measurement": "protein production", "result": "failed"}
    ]},
    {"sequence": "MKRDHHQFQGRLSNHGTSSSSSSISKDKMMMVKKEEDGGGNMDDELLAVLGYKVRSSEMAEVALKLEQLETMMSNVQEDGLSHLATDTVHYNPSELYSWLDNMLSELNPPPLPASSNGLDPVLPSPEICGFPASDYDLKVIPGNAIYQFPAIDSSSSSNNQNKRLKSCSSPDSMVTSTSTGTQIGGVIGTTVTTTTTTTTAAGESTRSVILVDSQENGVRLVHALMACAEAIQQNNLTLAEALVKQIGCLAVSQAGAMRKVATYFAEALARRIYRLSPPQNQIDHCLSDTLQMHFYETCPYLKFAHFTANQAILEAFEGKKRVHVIDFSMNQGLQWPALMQALALREGGPPTFRLTGIGPPAPDNSDHLHEVGCKLAQLAEAIHVEFEYRGFVANSLADLDASMLELRPSDTEAVAVNSVFELHKLLGRPGGIEKVLGVVKQIKPVIFTVVEQESNHNGPVFLDRFTESLHYYSTLFDSLEGVPNSQDKVMSEVYLGKQICNLVACEGPDRVERHETLSQWGNRFGSSGLAPAHLGSNAFKQASMLLSVFNSGQGYRVEESNGCLMLGWHTRPLITTSAWKLSTAAY", "values": [
      {"measurement": "protein production", "result": "failed"}
    ]}
  ]
}
